Measurements as given in patent publication US20260108608A1 (GC CELL, published 2026).

Target: T1, CD5 on CD5-positive tumor cell lines (CCRF-CEM, RPMI-8402_Luc / RPMI-8402-Luciferase, RPMI-8402) (human, UniProt P06127 25-495)
T1 sequence (looked up): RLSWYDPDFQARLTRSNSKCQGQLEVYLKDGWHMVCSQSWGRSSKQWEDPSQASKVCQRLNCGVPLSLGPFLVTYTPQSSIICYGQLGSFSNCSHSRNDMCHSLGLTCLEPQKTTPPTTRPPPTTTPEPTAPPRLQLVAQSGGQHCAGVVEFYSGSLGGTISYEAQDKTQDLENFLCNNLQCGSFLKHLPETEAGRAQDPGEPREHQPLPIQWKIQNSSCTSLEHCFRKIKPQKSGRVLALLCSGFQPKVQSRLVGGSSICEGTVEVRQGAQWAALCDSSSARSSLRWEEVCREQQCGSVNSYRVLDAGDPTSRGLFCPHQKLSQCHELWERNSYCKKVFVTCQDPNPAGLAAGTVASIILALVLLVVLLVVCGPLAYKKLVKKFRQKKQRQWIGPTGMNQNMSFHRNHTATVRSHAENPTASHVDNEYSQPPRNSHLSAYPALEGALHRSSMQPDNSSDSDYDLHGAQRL
Test: cell-based or functional assay

B1: CD5 CAR (fourth generation), chimeric antigen receptor with anti-CD5 scFv, expressed on cord blood-derived NK cells (receptor)
chain: EIQLVQSGGGLVKPGGSVRISCAASGYTFTNYGMNWVRQAPGKGLEWMGWINTHTGEPTYADSFKGRFTFSLDDSKNTAYLQINSLRAEDTAVYFCTRRGYDWYFDVWGQGTTVTVSSGGGGSGGGGSGGGGSDIQMTQSPSSLSASVGDRVTITCRASQDINSYLSWFQQKPGKAPKTLIYRANRLESGVPSRFSGSGSGTDYTLTISSLQYEDFGIYYCQQYDESPWTFGGGTKLEIKAKPTTTPAPRPPTPAPTIASQPLSLRPEACRPAAGGAVHTRGLDFACDFWVLVVVGGVLACYSLLVTVAFIIFWVRSKRSRLLHSDYMNMTPRRPGPTRKHYQPYAPPRDFAAYRSERVQPLEENVGNAARPRFERNKRVKFSRSADAPAYQQGQNQLYNELNLGRREEYDVLDKRRGRDPEMGGKPRRKNPQEGLYNELQKDKMAEAYSEIGMKGERRRGKGHDGLYQGLSTATKDTYDALHMQALPPR
  expression of CD107a and cytokines (IFN-γ and TNF-α) in NK cells co-cultured with CCRF-CEM and RPMI-8402_Luc, CD5 CAR-NK against CBNK: ≥ 2 fold
